The values below come from the DeepSol protein solubility set.

A short description of the data set: soluble on expression in E. coli; label from the status in PepcDB or PDB records.
“MDYKMNNLQLEALLNETLSPQLIKDYCPNGLQVEGKVEVKRIVTGVTASMALIEAAIELKADALLVHHGYFWKNEPEAIRGMKGRRIRTLIQNDLNLYAYHLPLDIHPQLGNNAQLAQRLGICVDGGLEGHPQSVAMFGHFLQPLTGEELAHRIGQVLNRTPLHIAPDQADKLIETVGWCTGGGQDYIELAASRGLDAFISGEISERTTYSAREQSIHYFSAGHHATERYGIKALGEWLAENHGFDVTFIDIDNPVLEHHHHHH”: the “soluble on expression in E. coli” value is listed as “soluble”.
The value for “MDYNNITEALQAFRTEKAYRHAPLRSCFFDMDGVLFDSMPAHARSWVEAAGECGIAAEPLDFYRWEGQKGSDTIKILFERGYGRLPTEKEIADMYGRKSQLFALYNSGNVIDDAPALVSDVCDRGLRIMLVTGSSQTDILQRLQRSYGDNFSPANMVTGADVHRGKPHPEPYLKALECVGMSPSEAFVVENAPLGVR” was “not soluble”; that for “MEADVEQQALTLPDLAEQFAPPDIAPPLLIKLVEAIEKKGLECSTLYRTQSSSNLAELRQLLDCDTPSVDLEMIDVHVLADAFKRYLLDLPNPVIPAAVYSEMISLAPEVQSSEEYIQLLKKLIRSPSIPHQYWLTLQYLLKHFFKLSQTSSKNLLNARVLSEIFSPMLFRFSAASSDNTENLIKVIEILISTEWNERQPAPALPPKPPKPTTVAN” was “soluble”; that for “MEAEGFPRLFHNFENVPEPKECKKVGSVPSYLTGTMLRNGPGMFTVGEEEYKHWFDGLGFMQRYHFEDGKMFYSARYLESEAYTKTVEAQRIVAGTFGTLSFPDPCKTIFSKYFSEFMNHSEKHDNSNVAFTPVGDSLYACTETPHMYRVDLDTLKTLEAADFSKFVAVHSCTAHQLYDENGDVYNIGSRFGPESAHVFTVTKNPKNQKSENDHSWEHTSKIGEIKASDPLYPTYMHSFGMSENYLVMFESPVRLHLQKYLLSEFVRATYHDCLEWHGDKDVSIFILNKKTGEQLPLTLKMNPFFTFHHANTFEKDGCLVMDYCRIENAGKFDTLLISNMKTGEFQYDAKFLPYLTRVIVPMSVSSSAKPGDNLLKSVPWASGCTSILQDDGSIRLTERRVCETSMEFPRYHWEKINMKEYRYVFGSTVFGRIDGNLAGVVKADLKFGNHLIWNRENPHQICGEPIFVPNPEGIEEDDGILIVPIMSSSEKQVPFVLILDAKTLEETARFEIPEARIPLGFHAFYKPKN” was “not soluble”.
As for “MEALILEPSLYTVKAILILDNDGDRLFAKYYDDTYPSVKEQKAFEKNIFNKTHRTDSEIALLEGLTVVYKSSIDLYFYVIGSSYENELMLMAVLNCLFDSLSQMLRKNVEKRALLENMEGLFLAVDEIVDGGVILESDPQQVVHRVALR”, the entry is “soluble”; as for “MEATRNETKPVWVYIIFRKNHCSGHEKMTVNISFDGPIFWKRQVAYIYCCSCHFDEHEGPLMAILEKFEQRVERVCLVDKPVDYPFLPDSLFSYMANKMPKLQFIYLRELDLEKINRGTVVELANHPNLKKVIVHLCRNYEVLEDFRNLPQLLVVKGEIMGLKVSTW”, “not soluble”.
As for “MECPKEIVLLMHSYFDGDLQPEGEQQLKEHLRSCAACAAHFHELKKTVAFLQYAAHVAAPPSFAAKVMEAMPKERKTARLRRFMHRHPLLTAASLFLALTLGSLASSWGERGAFSVSADEHVIIRDHTVIVPKGETVKGDIVVRNGSIRIEGTVDGDVTVIHGKKYMASAGQVTGEVEEINQVFEWIWYNIKERFNRALQSIE”, the entry is “not soluble”; as for “MEDGPNEFRAWLAEIGPSWIDVFPREEDPTPEYILFGGRWNSSERDEGRRIIVNVACLLFPEESTSACQREIWTSSQYELGNLETQTTLSLRSSCPDGAKLVGGGCSTEAVGSYRYVQVIQSGFAQDDPDAWLCSWANTSDDEQTQAMAMAYCLHEEPLPAECGCCPTMAETITVKREDEPLRFGPNRLEVSCDEGQTLVLGNCTLDVDDITPFRDVTMFRSGFPPTEEHPDGDRSRWGCSWYNPTGMAPRAIATAVCLPAE”, “not soluble”.
Take “MEDILMPEGEKVSMENFALLRVLGKGAYGKVFLVRKVGGKDHNTIYAMKVLRKTRVLTKQKTLEHTMAERQVLERLRGTPFLVNLFYAFQTDTKLHIVMEYVRGGELFTHLCSRGHFDLEAARFVIAELVVAIDSLHQRKVIYRDLKLENILLDEEGHVKLTDFGLSKLFLPGELDRANSYCGTIEYMSPEVINRPEGGYSDVVDWWSLGVISFELLTGCSPFTVDGAQNSSKDIAKRIMTKKVPFPKTMDVDARDFIGQLLEKKLEKRLGYNGVDEIKNHKFMSSIDWDAAVKRTLKPVIVPRIGHDLDTQFFSAEFTSQPPLYSPAESPLNANTLFRGYSYVSPSVIFANDNVIGEELMAEDVNALLASSSFFAKYKLDKSDAGLLGKGAFSVVRRCERVVDGAQFAVKIVSQKFASQAQREARILEMVQGHPNIVQLHDVHSDPLHFYLVMEILTGNELLERIRKLERFTESEAADIMRQLVSAVKYLHDKRIVHRDLKPENILFESIDSSARLRLVDFGFARLLPNSMEQQLKSVQVLRKMTPCFTLQYAAPEVLDVGDSQPEYNEQCDLWSLGVVLFTMLSGQVPFHARSRQESATEIMQRICRAEFSFTGDAWTNVSADAKNLITGLLTVDPKKRLSMQELTAHMWLKSSASMDTPLQTPSILPSSADETFNETLRAFLHANRDGFHLLDVAAAPLMKRRGIKRQSGDKDASGNSKNSRVTQFECLPEEQEAEMTSSTSRPSNLGMMNYREPNSGTIRETRGSDSS”: the “soluble on expression in E. coli” value was “not soluble”.
The value for “MEDRREALISKLMNMLVENGFSVSGTGFQPVATFDIVARRDVERYILKVLYNIDTLKQSTAYQLIKLAKLLRATAAIIGERTGNGQLEDGVVYYRHGVPISSVNTFESYLNGERPYIYSGPGGFYVRINGELLRERRNELNLSIGNISSYLGVSRRSVSLYENGSAATIDIFIRLRNILKADIVDHIDLFRINSTEINFEEKISDEYIARIIWLLQKYGLDTRPIFKVPFDIVAKDSDEISLIAALIGDAPEPERVRILKKISDVFEDDAFLVSKSNTYRESIGGCAVLTISDLESIEDKDALIGKIEKRAK” was “not soluble”; that for “MEEAKNPWLTGNLVEEANSQGIIQNRSIFNLFANTNIYIFFRHWTTIYERLLEIKQMNERVTKEINTRSTVTFAKDLDLLSSQLSEMGLDFVGEDAYKQVLRLSRRLINGDLEHQWFEESLRQAYNNKAFKLYTIDKVTQSLVKHAHTLMTDA” was “not soluble”.
As for “MEEIILVFPKEELEVRAMEFKKEFLDCGERIINGSFKLDYVDDYAEWLKIIRNNLKKETVNPKWVVSTTFFAVRKSDNKIIGIVNLRHYLNDFYKNSGHIGYSVRPSERRKGYASEILRQILEYAREKGLTEVCVVCKKENEASRKTILKNGGILSRTFKDEGEEHEAFYINTKKH”, the entry is “not soluble”.
The value for “MEEKFTPEEQAIYDEHFASDRPVELVEPEQVREAFNAEESSQQPSVEPLQEQPNSGVIEQERQARQKAEQKAMEARELAIEFAQKYAQMQEEAVRRRDENIPTLEDDPKAHVAWLSHKVQEQQKLLDEFSRIRESQERLNQEEYERQKLGDYFEEAKAQVQDKYPDLDSITDYLYERADSVLQAQADLYPQWKDPAARQQQIGAELRQICQQCQKAGINPIEVLVQKAKAFGYSGAPIKDEVETLQERSQAARTLTARGGQVPTGGMDMRTLFSMPDAEFAVWVEKNPEKFEQIMSRT” was “not soluble”; that for “MEEKLVTLAILTYTKAQILKNVLENEGIETYIHNVNQIQPVVSSGVRLRIKESDLPRALKITESSAWLAESIVGEKTPKVEHRTKKVLIPVDFSNYSMKACEFGFNFAKSFDAEVILLHVYFTPIYASSLPYGDVFNYQISDEETVKNVLHKVHDDLNTLSEKIKQKVASGEFPDVKYTCVLREGIPEEEILRYNKEHRPRIIIMGTRGKNQKDIDLIGSVTAEIIERSHTTVLAIPENTPFNRFNEVKRIAFMTNFDQRDLIAFDSFINGLSPFHFSVSLIHLSDVKDTWNEIKLAGIKDYFQKQYPDLEIHYDVVMSNDFLNSLDNYIKTNQIDIITLTSYKRNIFSRLFNPGIARKMIFHSDTPLLVING” was “not soluble”.
